Experimental data taken from publication PMC9482650, “Quantitative fragmentomics allow affinity mapping of interactomes” (Nature Communications, 2022).

T1: APBA1_1, Q02410
T1 sequence (Q02410 651-752, limits assumed, looked up): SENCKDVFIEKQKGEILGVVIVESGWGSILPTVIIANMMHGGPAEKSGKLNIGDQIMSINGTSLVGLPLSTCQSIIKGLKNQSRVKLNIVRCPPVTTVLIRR

T2: GRIP1_3, Q9Y3R0
T2 sequence (Q9Y3R0 247-346, limits assumed, looked up): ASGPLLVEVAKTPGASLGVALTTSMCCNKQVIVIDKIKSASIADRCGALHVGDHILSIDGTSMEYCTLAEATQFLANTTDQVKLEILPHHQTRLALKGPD

T3: PDZRN3_1, Q9UPQ7
T3 sequence (Q9UPQ7 244-349, limits assumed, looked up): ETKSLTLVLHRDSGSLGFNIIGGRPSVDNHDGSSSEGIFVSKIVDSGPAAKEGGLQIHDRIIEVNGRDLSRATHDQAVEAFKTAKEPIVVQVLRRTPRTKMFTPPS

T4: GRIP1_5, Q9Y3R0
T4 sequence (Q9Y3R0 568-668, limits assumed, looked up): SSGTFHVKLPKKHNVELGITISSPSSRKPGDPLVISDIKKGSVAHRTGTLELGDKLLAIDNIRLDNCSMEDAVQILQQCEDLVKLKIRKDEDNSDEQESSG

T5: MPDZ_5, O75970
T5 sequence (O75970 695-796, limits assumed, looked up): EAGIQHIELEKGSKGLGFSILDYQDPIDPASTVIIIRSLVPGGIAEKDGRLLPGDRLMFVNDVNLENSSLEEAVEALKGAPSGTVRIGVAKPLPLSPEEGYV

T6: MPDZ_12, O75970
T6 sequence (O75970 1857-1958, limits assumed, looked up): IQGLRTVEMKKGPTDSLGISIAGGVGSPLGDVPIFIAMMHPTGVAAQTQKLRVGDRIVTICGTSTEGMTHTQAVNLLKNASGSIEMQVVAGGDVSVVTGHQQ

T7: DLG3_1, Q92796
T7 sequence (Q92796 125-227, limits assumed, looked up): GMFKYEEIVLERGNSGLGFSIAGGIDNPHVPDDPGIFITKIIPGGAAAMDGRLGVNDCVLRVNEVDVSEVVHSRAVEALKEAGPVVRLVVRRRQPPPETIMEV

T8: LNX2_2, Q8N448
T8 sequence (Q8N448 334-432, limits assumed, looked up): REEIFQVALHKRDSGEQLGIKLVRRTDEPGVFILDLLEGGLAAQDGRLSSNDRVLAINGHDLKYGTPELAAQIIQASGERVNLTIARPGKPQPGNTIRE

T9: DLG3_3, Q92796
T9 sequence (Q92796 374-475, limits assumed, looked up): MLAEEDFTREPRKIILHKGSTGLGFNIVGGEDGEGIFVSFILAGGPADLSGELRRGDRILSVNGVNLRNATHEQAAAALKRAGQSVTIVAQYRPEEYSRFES

T10: PCLO, Q9Y6V0
T10 sequence (Q9Y6V0 4491-4600, limits assumed, looked up): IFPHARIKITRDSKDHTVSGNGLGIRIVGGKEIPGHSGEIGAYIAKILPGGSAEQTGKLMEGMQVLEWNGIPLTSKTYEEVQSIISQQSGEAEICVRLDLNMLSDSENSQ

T11: RHPN1, Q8TCX5
T11 sequence (Q8TCX5 508-602, limits assumed, looked up): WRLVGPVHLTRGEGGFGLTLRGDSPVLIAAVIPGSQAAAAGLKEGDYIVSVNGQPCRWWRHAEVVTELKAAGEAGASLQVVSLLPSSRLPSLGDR


Tests used:
Assay in all cases: holdup assay
Set-up in all cases: key: below the threshold = too weak to quantify, mostly under pKd 3.1 to 4
Conditions in all cases: plain residues with an end cap or a label only (N-terminal biotin on a linker: ttds)
[1] = biological target: T1, APBA1_1, Q02410
[2] = biological target: Inadl_9, Q8NI35
Inadl_9, Q8NI35, sequence (Q8NI35 1530-1615): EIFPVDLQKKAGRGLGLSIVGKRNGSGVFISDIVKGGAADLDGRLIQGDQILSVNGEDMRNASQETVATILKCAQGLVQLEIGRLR

[3] = biological target: T2, GRIP1_3, Q9Y3R0
[4] = biological target: Inadl_4, Q8NI35
Inadl_4, Q8NI35, sequence (Q8NI35 547-651): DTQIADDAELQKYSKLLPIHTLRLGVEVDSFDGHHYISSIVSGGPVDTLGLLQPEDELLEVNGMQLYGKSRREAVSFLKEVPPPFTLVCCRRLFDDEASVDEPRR

[5] = biological target: LAP2, Q96RT1
LAP2, Q96RT1, sequence (Q96RT1 other isoform, or with tags, fused parts or gaps): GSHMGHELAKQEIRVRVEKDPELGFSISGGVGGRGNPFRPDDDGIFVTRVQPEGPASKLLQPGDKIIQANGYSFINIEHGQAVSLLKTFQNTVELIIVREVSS

[6] = biological target: IL16_4, Q14005
IL16_4, Q14005, sequence (Q14005 1229-1329): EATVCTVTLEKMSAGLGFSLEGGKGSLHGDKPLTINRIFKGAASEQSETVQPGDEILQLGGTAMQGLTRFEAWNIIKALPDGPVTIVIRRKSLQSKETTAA

[7] = biological target: MAGI2_5, Q86UL8
MAGI2_5, Q86UL8, sequence (Q86UL8 915-1017): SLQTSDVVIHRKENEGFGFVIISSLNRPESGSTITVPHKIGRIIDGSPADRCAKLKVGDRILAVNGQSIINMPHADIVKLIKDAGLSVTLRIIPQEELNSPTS

[8] = biological target: Inadl_3, Q8NI35
Inadl_3, Q8NI35, sequence (Q8NI35 359-469): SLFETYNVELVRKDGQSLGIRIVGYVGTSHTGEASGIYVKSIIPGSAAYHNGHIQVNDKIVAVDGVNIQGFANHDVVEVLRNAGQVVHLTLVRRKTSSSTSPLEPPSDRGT

[9] = biological target: T3, PDZRN3_1, Q9UPQ7
[10] = biological target: FRMPD3, Q5JV73
FRMPD3, Q5JV73, sequence (Q5JV73 12-100): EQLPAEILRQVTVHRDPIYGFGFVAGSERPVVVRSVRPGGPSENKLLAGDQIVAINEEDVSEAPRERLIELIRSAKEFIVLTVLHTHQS

[11] = biological target: NOS1, P29475
NOS1, P29475, sequence (P29475 9-101): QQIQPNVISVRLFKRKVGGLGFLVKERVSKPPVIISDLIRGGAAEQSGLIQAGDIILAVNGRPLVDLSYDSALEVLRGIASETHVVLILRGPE

[12] = biological target: FRMPD4, Q14CM0
FRMPD4, Q14CM0, sequence (Q14CM0 67-160): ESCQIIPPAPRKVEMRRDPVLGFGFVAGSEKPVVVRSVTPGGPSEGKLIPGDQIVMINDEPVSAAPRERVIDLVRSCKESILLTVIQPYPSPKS

[13] = biological target: DLG1_1, Q12959
[14] = biological target: T4, GRIP1_5, Q9Y3R0
[15] = biological target: GIPC2, Q8TF65
GIPC2, Q8TF65, sequence (Q8TF65 112-203): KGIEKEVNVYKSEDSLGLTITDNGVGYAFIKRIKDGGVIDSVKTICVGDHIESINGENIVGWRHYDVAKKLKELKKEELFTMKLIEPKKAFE

[16] = biological target: IL16_3, Q14005
IL16_3, Q14005, sequence (Q14005 1107-1207): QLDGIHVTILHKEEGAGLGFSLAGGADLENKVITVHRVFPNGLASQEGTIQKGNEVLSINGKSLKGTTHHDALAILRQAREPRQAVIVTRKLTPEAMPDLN

[17] = biological target: T5, MPDZ_5, O75970
[18] = biological target: T6, MPDZ_12, O75970
[19] = biological target: T7, DLG3_1, Q92796
[20] = biological target: MAGI2_2, Q86UL8
MAGI2_2, Q86UL8, sequence (Q86UL8 410-522): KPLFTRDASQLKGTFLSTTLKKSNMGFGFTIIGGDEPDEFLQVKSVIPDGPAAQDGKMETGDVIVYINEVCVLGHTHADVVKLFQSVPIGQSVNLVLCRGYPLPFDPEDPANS

[21] = biological target: MAGI1_2, Q96QZ7
MAGI1_2, Q96QZ7, sequence (Q96QZ7 456-580): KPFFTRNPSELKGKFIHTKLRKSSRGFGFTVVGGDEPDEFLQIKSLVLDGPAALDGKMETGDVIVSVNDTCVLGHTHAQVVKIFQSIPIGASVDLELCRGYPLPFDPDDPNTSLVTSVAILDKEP

[22] = biological target: T8, LNX2_2, Q8N448
[23] = biological target: ARHGEF12, Q9NZN5-2
ARHGEF12, Q9NZN5-2, sequence (Q9NZN5 other isoform, or with tags, fused parts or gaps): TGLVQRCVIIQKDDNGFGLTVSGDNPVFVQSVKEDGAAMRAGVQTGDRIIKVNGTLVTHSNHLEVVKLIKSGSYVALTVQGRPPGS

[24] = biological target: T9, DLG3_3, Q92796
[25] = biological target: T10, PCLO, Q9Y6V0
[26] = biological target: T11, RHPN1, Q8TCX5

pKd [1]	pKd [2]	pKd [3]	pKd [4]	pKd [5]	pKd [6]	pKd [7]	pKd [8]	pKd [9]	pKd [10]	pKd [11]	pKd [12]	pKd [13]	pKd [14]	pKd [15]	pKd [16]	pKd [17]	pKd [18]	pKd [19]	pKd [20]	Binder	other results
below the threshold	below the threshold	below the threshold	below the threshold	4.41	below the threshold	below the threshold	3.58	3.59	below the threshold	3.88	below the threshold	4.76	below the threshold	below the threshold	below the threshold	below the threshold	below the threshold	4.13	3.72	GRLLGLETNV [ARHGEF26, Q96DR7]	pKd [21]: 3.65; pKd [22]: 4.13; pKd [23]: below the threshold; pKd [24]: 4.23; pKd [25]: below the threshold; pKd [26]: 4.48
below the threshold	below the threshold	3.51	below the threshold	below the threshold	below the threshold	below the threshold	below the threshold	4.68	below the threshold	3.53	below the threshold	4.04	below the threshold	below the threshold	below the threshold	below the threshold	below the threshold	below the threshold	4.21	QRPYRRESEI [KCNJ12, Q14500]	pKd [21]: 4; pKd [22]: below the threshold; pKd [23]: 3.65; pKd [24]: 4.32; pKd [25]: below the threshold; pKd [26]: 3.5
